# Source: US20220160939A1, “SELF-ASSEMBLING PEPTIDES AS BRONCHIAL OBSTRUCTION AGENTS” (3-D MATRIX, LTD., priority 2014, published 2022)
# Key:
# [1] = Appearance of 1.5% peptide solutions with various salts at room temperature; assay type: physicochemical; conditions: for Appearance: room temperature
# Experimental: The effect of salt ionic strength level on the properties of peptide solutions was evaluated to identify optimized salt ionic strength levels for the peptides as described herein. Increasing the salt ionic strength level of PuraMatrix® (SEQ ID NO:1) and other peptides may generally improve its function and mechanical strength for various clinical applications. To adjust the salt ionic strength of the peptide solutions by way of example, various salt buffer solutions including NaCl, KCl, MgCl2, CaCl2 and DPBS (10×) were added to 2 mL of 1.5% peptide solutions.
# [2] = Rheological properties of peptide solutions at adjusted salt ionic strength; assay type: physicochemical
# Experimental: Based on the visual observation of the effect of salt ionic strength on the properties of the peptide solutions, the effect on the rheological properties of the peptide solutions after adjusting their ionic strength level with NaCl to 0.7 M (PuraMatrix® (SEQ ID NO:1)), 0.2 M (KLD12 (SEQ ID NO:3)) or 0.02 M (IEIK13 (SEQ ID NO:2)), which is closely below the critical ionic strength at which each peptide becomes cloudy, was evaluated. If the ionic strength levels with NaCl of peptide solutions are higher than 0.9 M (PuraMatrix® (SEQ ID NO:1)), 0.3 M (KLD12 (SEQ ID NO:3)) or 0.03 M (IEIK13 (SEQ ID NO:2)), the peptide solutions begin phase separation becoming cloudy and weak. The rheological property of PuraMatrix® (SEQ ID NO:1), KLD12 (SEQ ID NO:3) and IEIK13 (SEQ ID NO:2) solutions was higher after adjusting their ionic strength level with NaCl to 0.7 M (PuraMatrix® (SEQ ID NO:1)), 0.2 M (KLD12 (SEQ ID NO:3)) or 0.02 M (IEIK13 (SEQ ID NO:2)). The results are shown in FIG. 10 for KLD12 (SEQ ID NO:3) 1%, FIG. 11 for IEIK13 (SEQ ID NO:2) 1%, and FIG. 12 for PuraMatrix® (SEQ ID NO:1) 1%, respectively. Frequency sweep tests were performed from 1 rad/s to 10 rad/s at 1 Pa.
# Based on the results of the effect on the rheological properties of the peptide solutions after adjusting their ionic strength level with NaCl to 0.7 M (PuraMatrix® (SEQ ID NO:1)), 0.2 M (KLD12 (SEQ ID NO:3)) or 0.02 M (IEIK13 (SEQ ID NO:2)), the effect on the rheological properties of the peptide solution at various salt ionic strengths was evaluated. […] The results are shown in FIG. 13 for PuraMatrix® (SEQ ID NO:1) 1% solutions and in FIG. 14 for IEIK13 (SEQ ID NO:2) 1% solutions. Frequency sweep tests were performed from 1 rad/sec to 10 rad/sec at 1 Pa and the storage modulus at 1 rad/sec was selected for data.
# Based on the results of the effect on the rheological properties of the peptide solutions and hydrogels after adjusting their ionic strength levels with NaCl, the effect of various salts (KCl, MgCl2, and CaCl2) was also evaluated. The rheological property of PuraMatrix® (SEQ ID NO:1) solutions increases with ionic strength adjustment at 0.15 M of all the salts. Increases of the rheological property of PuraMatrix® (SEQ ID NO:1) solutions with various salts were not predominantly different. However, increases of the rheological property of PuraMatrix® (SEQ ID NO:1) solutions may vary depending on the salting out constant, K of each salt. Constant K is a constant in Cohen's equation: log S=B−KI, where S is solubility, B is idealized solubility, K is salting out constant, and I is ionic strength. With a higher value of constant K and ionic strength of salts, solubility of the peptide may decrease resulting in strong peptide self-assembly with increased hydrophobic effect and higher rheological properties of the peptide solution. The constant K of NaCl may be higher than the other salts. […] The results are shown in FIG. 17 for PuraMatrix® (SEQ ID NO:1) 1% solution before DMEM treatment, and in FIG. 18 for PuraMatrix® (SEQ ID NO:1) 1% hydrogels after DMEM treatment for 10 min Frequency sweep tests were performed from 1 rad/sec to 10 rad/sec at 1 Pa and the storage modulus at 1 rad/sec was selected for data.
substance,measurement,setting,value
Arg-Ala-Asp-Ala-Arg-Ala-Asp-Ala-Arg-Ala-Asp-Ala-Arg-Ala-Asp-Ala [PuraMatrix ®],critical salt ionic strengths at which peptides become cloudy,[1],0.9˜1.2 M
same,Appearance,"[1]; CaCl2 0 M, ionic strength 0 M, conc. 1.5%","Clear, thick gel"
same,Appearance,"[1]; CaCl2 0.05 M, ionic strength 0.15 M, conc. 1.48%","Clear, thick, stiffer gel"
same,Appearance,"[1]; CaCl2 0.1 M, ionic strength 0.3 M, conc. 1.45%","Clear, thick, stiffer gel"
same,Appearance,"[1]; CaCl2 0.15 M, ionic strength 0.45 M, conc. 1.43%","Clear, thick, stiffer gel"
same,Appearance,"[1]; CaCl2 0.2 M, ionic strength 0.6 M, conc. 1.4%","Clear, thick, stiffer gel"
same,Appearance,"[1]; CaCl2 0.25 M, ionic strength 0.75 M, conc. 1.38%","Clear, thick, stiffer gel"
same,Appearance,"[1]; CaCl2 0.3 M, ionic strength 0.9 M, conc. 1.35%","Clear, thick, stiffer gel"
same,Appearance,"[1]; CaCl2 0.35 M, ionic strength 1.05 M, conc. 1.32%","Clear, thick, stiffer gel"
same,Appearance,"[1]; CaCl2 0.383 M, ionic strength 1.15 M, conc. 1.31%","Clear, thick, stiffer gel"
same,Appearance,"[1]; CaCl2 0.4 M, ionic strength 1.2 M, conc. 1.3%","Slightly cloudy, thick, stiffer gel"
same,Appearance,"[1]; CaCl2 0.417 M, ionic strength 1.25 M, conc. 1.29%","Slightly cloudy, brittle gel"
same,Appearance,"[1]; CaCl2 0.433 M, ionic strength 1.3 M, conc. 1.28%","Cloudy, phase-separated"
same,Appearance,"[1]; DPBS (pH 3.2) 0 M, ionic strength 0 M, conc. 1.5%","Clear, thick gel"
same,Appearance,"[1]; DPBS (pH 3.2) 0.15 M, ionic strength 0.15 M, conc. 1.35%","Clear, thick, stiffer gel"
same,Appearance,"[1]; DPBS (pH 3.2) 0.3 M, ionic strength 0.3 M, conc. 1.2%","Clear, thick, stiffer gel"
same,Appearance,"[1]; DPBS (pH 3.2) 0.45 M, ionic strength 0.45 M, conc. 1.05%","Clear, thick, stiffer gel"
same,Appearance,"[1]; DPBS (pH 3.2) 0.6 M, ionic strength 0.6 M, conc. 0.9%","Clear, thick, stiffer gel"
same,Appearance,"[1]; DPBS (pH 3.2) 0.75 M, ionic strength 0.75 M, conc. 0.75%","Clear, thick, stiffer gel"
same,Appearance,"[1]; DPBS (pH 3.2) 0.9 M, ionic strength 0.9 M, conc. 0.6%","Clear, thick, stiffer gel"
same,Appearance,"[1]; DPBS (pH 3.2) 0.95 M, ionic strength 0.95 M, conc. 0.55%","Slightly cloudy, brittle gel"
same,Appearance,"[1]; DPBS (pH 3.2) 1.0 M, ionic strength 1.0 M, conc. 0.5%","Cloudy, phase-separated"
same,Appearance,"[1]; KCl 0 M, ionic strength 0 M, conc. 1.5%","Clear, thick gel"
same,Appearance,"[1]; KCl 0.15 M, ionic strength 0.15 M, conc. 1.43%","Clear, thick, stiffer gel"
same,Appearance,"[1]; KCl 0.3 M, ionic strength 0.3 M, conc. 1.35%","Clear, thick, stiffer gel"
same,Appearance,"[1]; KCl 0.45 M, ionic strength 0.45 M, conc. 1.27%","Clear, thick, stiffer gel"
same,Appearance,"[1]; KCl 0.6 M, ionic strength 0.6 M, conc. 1.2%","Clear, thick, stiffer gel"
same,Appearance,"[1]; KCl 0.75 M, ionic strength 0.75 M, conc. 1.13%","Clear, thick, stiffer gel"
same,Appearance,"[1]; KCl 0.9 M, ionic strength 0.9 M, conc. 1.05%","Clear, thick, stiffer gel"
same,Appearance,"[1]; KCl 0.95 M, ionic strength 0.95 M, conc. 1.03%","Clear, thick, stiffer gel"
same,Appearance,"[1]; KCl 1.0 M, ionic strength 1.0 M, conc. 1.0%","Clear, thick, stiffer gel"
same,Appearance,"[1]; KCl 1.05 M, ionic strength 1.05 M, conc. 0.98%","Slightly cloudy, thick, stiffer gel"
same,Appearance,"[1]; KCl 1.1 M, ionic strength 1.1 M, conc. 0.95%","Slightly cloudy, brittle gel"
same,Appearance,"[1]; KCl 1.15 M, ionic strength 1.15 M, conc. 0.93%","Cloudy, phase-separated"
same,Appearance,"[1]; MgCl2 0 M, ionic strength 0 M, conc. 1.5%","Clear, thick gel"
same,Appearance,"[1]; MgCl2 0.05 M, ionic strength 0.15 M, conc. 1.48%","Clear, thick, stiffer gel"
same,Appearance,"[1]; MgCl2 0.1 M, ionic strength 0.3 M, conc. 1.45%","Clear, thick, stiffer gel"
same,Appearance,"[1]; MgCl2 0.15 M, ionic strength 0.45 M, conc. 1.43%","Clear, thick, stiffer gel"
same,Appearance,"[1]; MgCl2 0.2 M, ionic strength 0.6 M, conc. 1.4%","Clear, thick, stiffer gel"
same,Appearance,"[1]; MgCl2 0.25 M, ionic strength 0.75 M, conc. 1.38%","Clear, thick, stiffer gel"
same,Appearance,"[1]; MgCl2 0.3 M, ionic strength 0.9 M, conc. 1.35%","Clear, thick, stiffer gel"
same,Appearance,"[1]; MgCl2 0.35 M, ionic strength 1.05 M, conc. 1.32%","Clear, thick, stiffer gel"
same,Appearance,"[1]; MgCl2 0.383 M, ionic strength 1.15 M, conc. 1.31%","Clear, thick, stiffer gel"
same,Appearance,"[1]; MgCl2 0.4 M, ionic strength 1.2 M, conc. 1.3%","Slightly cloudy, thick, stiffer gel"
same,Appearance,"[1]; MgCl2 0.417 M, ionic strength 1.25 M, conc. 1.29%","Slightly cloudy, brittle gel"
same,Appearance,"[1]; MgCl2 0.433 M, ionic strength 1.3 M, conc. 1.28%","Cloudy, phase-separated"
same,Appearance,"[1]; NaCl 0 M, ionic strength 0 M, conc. 1.5%","Clear, thick gel"
same,Appearance,"[1]; NaCl 0.15 M, ionic strength 0.15 M, conc. 1.43%","Clear, thick, stiffer gel"
same,Appearance,"[1]; NaCl 0.3 M, ionic strength 0.3 M, conc. 1.35%","Clear, thick, stiffer gel"
same,Appearance,"[1]; NaCl 0.45 M, ionic strength 0.45 M, conc. 1.27%","Clear, thick, stiffer gel"
same,Appearance,"[1]; NaCl 0.6 M, ionic strength 0.6 M, conc. 1.2%","Clear, thick, stiffer gel"
same,Appearance,"[1]; NaCl 0.75 M, ionic strength 0.75 M, conc. 1.13%","Clear, thick, stiffer gel"
same,Appearance,"[1]; NaCl 0.8 M, ionic strength 0.8 M, conc. 1.10%","Clear, thick, stiffer gel"
same,Appearance,"[1]; NaCl 0.85 M, ionic strength 0.85 M, conc. 1.08%","Clear, thick, stiffer gel"
same,Appearance,"[1]; NaCl 0.9 M, ionic strength 0.9 M, conc. 1.05%","Slightly cloudy, brittle gel"
same,Appearance,"[1]; NaCl 0.95 M, ionic strength 0.95 M, conc. 1.03%","Cloudy, phase-separated"
same,Appearance,"[1]; NaCl 1.0 M, ionic strength 1.0 M, conc. 1.0%","Cloudy, phase-separated"
same,"salt ionic strength increase that did not change the clear color, while apparent stiffness increased","[1]; depending on different salts, 1.5% peptide solutions",0.85˜1.15 M
same,rheological property of solutions with ionic strength adjustment,"[2]; 0.15 M ionic strength of all the salts (NaCl, KCl, MgCl2, CaCl2), 1% solution",increases
same,rheological property of solutions with NaCl versus KCl and CaCl2,"[2]; 0.15 M ionic strength, 1% solution",slightly higher
same,ionic strength up to which the rheological property of 1% solutions increases (decreases above),"[2]; 1% solutions, storage modulus at 1 rad/sec",up to 0.7 M
same,ionic strength level with NaCl above which solutions begin phase separation becoming cloudy and weak,[2]; NaCl,higher than 0.9 M
same,rheological property after adjusting ionic strength level with NaCl,"[2]; NaCl to 0.7 M (PuraMatrix), 0.2 M (KLD12) or 0.02 M (IEIK13), 1% solutions",higher
